In general, Kd refers to the constant that tells how readily two partners part at equilibrium. One may read the IC50 as the concentration that gives 50% inhibition. A high value points to lower potency.

We go through one molecule from patent publication US20240075137A1.

The target in assay [1] is mouse PVRIG on cells (mouse). Description: FACS titration, D10.G4.1 cells.
Assay [2] concerns the target mouse PVRIG on cells (mouse). Description: FACS, D10.G4.1 cells vs isotype. For orientation: A flow cytometer gives signals particle by particle.
The target in assay [3] is mouse PVRIG on cells (mouse). Description: FACS, NK cells, 10 ug/ml vs isotype.
Assay [4] addresses mouse PVRIG on cells (mouse). Description: FACS titration, HEK293 mPVRIG over-expressing cells.
Assay [5] concerns the target mouse PVRIG on cells (mouse). The experiment in a line: FACS, HEK293 mPVRIG over-expressing vs empty vector cells, 10 ug/ml.
Assay [6] addresses mouse PVRIG-Fc fusion protein (mouse). The experiment in a line: blocking of mPVRIG-Fc (029-Fc) binding to mPVRL2 over-expressing cells.

B1: AB-407 (antibody, V domains shown)
VH: QVQLQQSGAELAKPGSSVMISCKASGYTFTNYAVHWIKQTTGQALEWTGYIAPGSGVTKYNEKFKGKATLTVDKSSTTAYMQLSSLTPVDTAVYYCASGTTRFAYWGQGTLVTVSS
VL: DIVLTQSPALAVSLGQRATISCRASQSVSLSSYNLMQWYQQKPGQEPKILIYDASNLPSGIPARFSGSGSGTDFTLTIDPVQADDIATYYCQQSKDDPLTFGSGTKLEIK
Take B1: in assay [1], the Kd was 1.32 nM. The molecule further registered an MFIr on D10.G4.1 (Ab/Iso) in assay [2] of 8. For the same molecule, the MFIr on NK cells (Ab/Iso) in assay [3] was found to be 2.8. Moreover, the equilibrium dissociation constant (Kd) in assay [4] turned out to be 0.334 nM. This molecule registered an MFIr (HEK OX/EV) in assay [5] of 50. In assay [6], the % R-L blocking came out at 95% and the IC50 was determined as 3.99 nM.
